{
  "source": "paper PMC6625514",
  "molecular_target": "CD71 (transferrin receptor), used in ELISA (UniProt P02786 89-760)",
  "sequence (P02786 89-760)": "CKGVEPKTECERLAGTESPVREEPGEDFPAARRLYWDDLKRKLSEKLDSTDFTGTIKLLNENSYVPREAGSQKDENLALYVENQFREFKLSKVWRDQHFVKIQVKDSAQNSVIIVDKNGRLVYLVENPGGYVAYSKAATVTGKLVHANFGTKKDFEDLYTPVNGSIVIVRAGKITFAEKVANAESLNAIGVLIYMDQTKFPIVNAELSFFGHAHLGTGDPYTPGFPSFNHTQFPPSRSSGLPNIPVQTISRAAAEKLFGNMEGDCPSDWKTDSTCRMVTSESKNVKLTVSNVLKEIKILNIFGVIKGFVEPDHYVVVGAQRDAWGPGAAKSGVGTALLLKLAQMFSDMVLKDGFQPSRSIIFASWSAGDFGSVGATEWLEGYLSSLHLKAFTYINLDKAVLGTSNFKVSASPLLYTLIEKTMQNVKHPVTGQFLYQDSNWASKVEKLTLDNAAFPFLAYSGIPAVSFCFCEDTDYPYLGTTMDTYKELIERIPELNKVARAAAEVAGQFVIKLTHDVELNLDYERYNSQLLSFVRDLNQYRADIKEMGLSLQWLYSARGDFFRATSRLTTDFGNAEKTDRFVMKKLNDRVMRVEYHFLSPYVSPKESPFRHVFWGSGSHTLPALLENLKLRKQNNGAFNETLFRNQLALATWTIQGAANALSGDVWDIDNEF",
  "test": "ELISA",
  "data": [
    {"binder": "XQ-2d (ssDNA) DNA: ACTCATAGGGTTAGGGGCTGCTGGCCAGATACTCAGATGGTAGGGTTACTATGAGC", "values": [
      {"measurement": "Kd", "result": "50.5 ± 27.3", "unit": "nM"}
    ]}
  ]
}
